According to the DeepSol protein solubility set:

assay: soluble on expression in E. coli; label from the status in PepcDB or PDB records

| Sequence | soluble on expression in E. coli |
| --- | --- |
| MSAITAPLPTLDDLATLTLSIKAWGRELGFQEVGISGLDLAEHEQHLQRWLDAGYHGEMDYMAAHGSKRSHPDELVPGTLRVVSLRMDYLPGDTEMAQRLTEPEKAYVSRYALGRDYHKLIRKRLQQLAERIQQAIGPFGFRAFVDSAPVLEKAIAEQAGLGWIGKNTLVLNRKAGSFFFLGELFVDIPLPVDAPHATEHCGRCTACLDICPTAAFVGPYVLDARRCISYLTIELKTAIPEELRPLIGNRVFGCDDCQIVCPWNRFARPTDQSDFQPRHNLDNAGLAELFLWDEEKFLGSTEGSPLRRAGYERWLRNLAVGLGNAPSTIPVIEALQARRDYPSELVREHVEWALQRHGVAPL | not soluble |
| MISLNNRLTTVSRFLKQGTIADIGSDHAYLPIYAIQNHLCECGIAGEVIQGPFQAAVKNVAANHLVERIDVRLGDGLSVIHPEDVIDNITICGMGGPLIAKILKDGQDKLSQHPRLILQSNIQTENLRQTLQQLNYEIIDEIIMEEKGHIYEIVVA | not soluble |
| MKPIQLPLSVRLRDDATFANYYPGANAAALGYVERLCEAEAGWAESLIYLWGHDGVGRSHLLQAACLRFEQFEERTIYLPMADLVQYGPEIFDDLEQCELVCIDDLDVLVGKREWEEGLFHLFNRLRDTGRRLLLAASKSPRELQVKLPDLKSRLTMALIFQLHGLSDEDKLRALQLRASRRGLHLTDEVGRFILNRGSRSMNSLFDLLEQLDRASLQAQRKLTIPFLKETLGWLEHHHHHH | soluble |
| RLNLKAIAERSESLEDFFTRTLPHYCQQQIAIIDARCEFLYQQSHFFENSFLVKEGLINPERFVPMFGMYGLAEAVNLLCEKEGIAARYGKEAAANEVGYRISAQLAEFVANTPVKYGWQKRAMLHAQSGISSDIGTTPGARLPYGDEPDPITHLQTVAPHHAYYYSGISDILTLDETIKRNPQALVQLCLGAFKAGMREFTANVSGNDLVRVTGYMVRLSDLEKYRAEGSRTNTTWL | not soluble |
| MGSDKIHHHHHHMRTYTKEIQAIIDNVEKVIIGKENVITQSLAALLAGGHVLLEDVPGVGKTMLVRAFSRSIGLTFKRVQFTPDLLPSDLTGVSMYNQKTSQFEYRPGPLMGNIVLADEINRTSPKTQSALLEGMAEANVTVDGEIHTLPNPFFVMATQNPIEHEGTYPLPEAQLDRFLIKVKMGYPDFQQEMKLLTRFERDEPIETLESVITRDELLRMKEDVKAVHVSQPVKKYIVHLVQATRTHASLYLGASPRSSIALMKVAQAWAYMEGRSFVLPDDVKELLTPVLSHRLILTADARYHGQTAERILEQVKKEVAVPIQQDVESL | not soluble |
| MSKAFDLVVIGAGSGGLEAGWNAATLYGKRVAVVDVQTSHGPPFYAALGGTCVNVGCVPKKLMVTGAQYMDHLRESAGFGWEFDGSSVKANWKKLIAAKNEAVLDINKSYEGMFNDTEGLDFFLGWGSLESKNVVVVRETADPKSAVKERLQADHILLATGSWPQMPAIPGIEHCISSNEAFYLPEPPRRVLTVGGGFISVEFAGIFNAYKPPGGKVTLCYRNNLILRGFDETIREEVTKQLTANGIEIMTNENPAKVSLNTDGSKHVTFESGKTLDVDVVMMAIGRIPRTNDLQLGNVGVKLTPKGGVQVDEFSRTNVPNIYAIGDITDRLMLTPVAINEGAALVDTVFGNKPRKTDHTRVASAVFSIPPIGTCGLIEEVAAKEFEKVAVYMSSFTPLMHNISGSKYKKFVAKIVTNHSDGTVLGVHLLGDGAPEIIQAVGVCLRLNAKISDFYNTIGVHPTSAEELCSMRTPSYYYVKGEKMEKLPDSNL | soluble |
| MNMNQTTSPALSQVETAIRVPAGNFAKYNYYSVFDIVRQTRKQFINANMSWPGSRGGKTWDLAMGQAQYIRCMFRENQLTRRVRGTLQQTPDNGTNLSSSAVGGIQGQAERRPDLATLMVVNDAINQQIPTLLPYHFPHDQVELSLLNTDVSLEDIISESSIDWPWFLSNSLTGDNSNYAMELASRLSPEQQTLPTEPDNSTATDLTSFYQTNLGLKTADYTPFEALNTFARQLAITVPPGGTVDCGYSACQPAVLEHHHHHH | not soluble |
| MSLLTVGIVDDNPRDLEKLELIVNNMENVELILKANSADEVYHSIQKTPVDLLITDIEMPGMSGYQLADFIQLNNMKTAVIFVTAKSGYAVHAFELNVHDYILKPFNPDRLIQSIDRFTEKKDAGRVTGRLFIRSDGDLVVVPKAEIIFLERTGRTTTIHTINETYETYQSLGELEGDIRESMFIRSHRSFIINLQYVKRFASYSKKSFVVIFEGSSGKALVTKEKLKYLQENYEGHHHHHH | not soluble |
| MGSDKIHHHHHHMAQTVSIIVSPEDQVRLAEVIGDRNSPQKHVQRARIVLHSAEHRPVLEVARDIGISRPAVWRWQLRYAEQGVDGLLRDKTRKPGKPPLPLGTVARVLALPCSNPPGSVTHWTGRAVAKAVGISLRAVQRIWDAHHLQPHRLRTFKKSKDPAFTEKVEDVVGLYMEPPCHAVVLSIDEKSQIQALDRTQPGLPLKPGKCATMTHDYKRNGTTTLFAALNILDGTVLGRCMQKHRHQEFIKFLNAVERAVPAGKIIHAILDNYGTHKHPKVRQWLADHPRWVFHFTPTL | not soluble |
| MNVYTFDFNDIKNQSDFYREFTQTFGLASEKVSDLDTLWDAVMSDILPLPLEIEFVHLPDKLRRRYGALILLFDEAEEELEGRLRFNVRH | not soluble |
| MKKTKIVALSMMNSQTSGNPSRGTTKFESYTFDYWQYIDTLVYWGGSSGEGIIVTPSADVIDEAHSNGVPVLGTIFLPPKEYGGKVDWVKTMLKKDEQGQYPFASQMVKVAKTYGFEGWFINEETQGLNADDAANMKALIQQVKKEDSSLQIMWYDAMTKDGKVDWQNQLNDQNATFVQDKAADAMFLNFWWTQNNLADQKLLEKSNLYAKNHNIDPYNIYAGIDVQAKDVQTPVKWNLLEKGNQATQTSIGLYAASATYTNASNWDDFQNRESAFWVNQKADPRQVDHSVNESWTGLSKYVLEKSAISGNEFNTNFNLGNGYNYFKAGQKISEMDWNDRSLAGILPSYRWIIDNEGKNKISPSFDFANAYNGGNSLKFMAEHLDAGKSSNITLFASDLKIAMGAKFSVSMRSDQALKVSAILELANGQKVSIAGDKSLTENWSKLEHHHHHH | not soluble |
| MGSDKIHHHHHHMFLQPLLAKKIIAEVKKMYEREVIIVNTDGLIMAGTNDERVGQFHEGALICAKERRSVIITKEDETRLKGVKAGINLPVFFDHDVISVFGLTGEPAEIQPFGELLRKMTELFIKESRHLEQSQWRERMLESFMIDWLQLKEWSPSFLEKAQLLGVDLSSRRQMILIQGYEWSPHDIEQMARSWKSSYPADLFIRWGNERILINHEVPQHEQRDRLLRKILHICSFANTASSQYTAAGAGRAVASSSLTDSYEQAEKALAVSLKRKTPIFEEDLKLDMCLTEISPGTRNEFPQRVLGKALEHQELMNTIRTFFHHDLSLKQTAEDMHIHINTLRYRLAKAEQLTGLRFDRTEDVVTMYVALYFLDQDTK | not soluble |
| MNKTWWKEAVAYQIYPRSFMDSNGDGIGDLQGIIAKLDYLKDLGIDVIWICPMYKSPNDDNGYDISDYQDIMDEFGTMEDFDALLDEVHKRDMKLIIDLVINHTSDEHPWFIESRSSKDNPKRDWYIWHDGKDGAEPNNWESIFNGSAWEYDEVTGQYYLHLFSRKQPDLNWENKEVREVLYDTVNWWLDKGIDGFRVDAISHIKKEDGFKDMPNPKGLKYVPSFDKHMNVDGIQPLLEELKENTFSKYDIMTVGEANGVKIEDAELWVGEEQGKFNMVFQFEHLSLWDAEKKKDLDVVGLKKVLTKWQKGLENKGWNALYIENHDKPRIVSTWGDDKQYWRESATALGAMYFFMHGTPFIYQGQEIGMTNVQFPNIEDYDDVAIKNLYREKIAEGVSHQDMMEIIWASCRDNSRTPMHWDDEINAGFTTGTPWFGMNQNYKEINVAKQKNEENSIFNFYKKMIALKKEHDVLNYGTYDLLLEDDPQIYAYTRTLNDEKIVVISNISKEEAVYNEDLFALERKRLLLNNYEVAEHEQLTTITLKPYETRVYRIS | not soluble |
| MGSDKIHHHHHHMVEVLERLGCETVLPEKQICCGQPTYNSGYSKDSMKTFKNEIDALLSIDADYIVGPSGSCVFMIKEYKDIFKDDPEYGPKAAEIDSKIYEFTQFIYRVLKVVDCGAELDAKVTVHRSCHMTRLIGERTAPFVLLDHVKDIERVPLKNVQLCCGFGGTFSAKRPELSVEMVDEKVKNIVDTDAEILIGTEESCLMNIVGRMNRLGYKIKAMHIAEVLNHNVDINRIKYIKDTDHVVVPANGEGVF | not soluble |
| MSLTGMLKRKVIVVSGVGPGLGTTLAHRCARDGADLVLAARSAERLDDVAKQIIDTGRRAVAVRTDITDDDDVSNLVQATLAAYGKADVLINNAFRVPSMKPLAGTTFEHIRDAIELSALGTLRLIQAFTPALAQSHGAIVNVNSMVIRHSQPKYGTYKMAKSVLLAMSHSLATELGEQGIRVNSVAPGYIWGDTLKSYFDHQAGKYGTTVDQIYQATAANSDLKRLPTEDEVASAILFLASDLASGITGQTLDVNCGEYHTEGHHHHHH | soluble |
| MAHHHHHHMHRQTAALQGSTVPAFCELLHSRGEAWLGLLGAALALPVHNATADGPSPNSFATPPSCSPSDAPALSEACSRLLSTYFIAAKAQCVEGADASMMKTLVKLTLAHTEWRTRLAMALPQRTGHPTAASSPTRAVTALIDAVAAVGLCDATLHFFTAKTLLGECVFRLLESEAWPTWAPEYCSAPLPQQAEHGVSGAFVHGEGGEPPDWQRLYAEVSHRTRLVPASMHTTEPPSPAFSILQLAQDLQDHLERTVQQSHLALSFTEGGV | not soluble |
| MGSDKIHHHHHHMIDSSLVLDAETIRNFVKSVNDADSMDKVRAAVSSFAEELRSKSSENGISIREDVLKSILQRIASSHTTELARHYANEVYNMAFISRKLPYSDIDLSRWREYDFVITDSLWLFDKRDYRGSKLGWYWGNFVPQIPRQLILRFSRKDEWVLDPFSGSGTTLIEAKKLGRNSLGIEINEEVCKKSLEILNSIDGDGFSTAISGDSASVNLTKVMEYYGIPEFNLVIMHPPYHDIIKFTDIGGDLSNARDTKEFLSMLGKVTRNVSKYLQKGRFLALVIGDKYSNGEWIPLGFYSMQKVMDQGFRLKSTIVKNFEYTRGKASSSDLWRYRALAGGFYVFKHEYIFVFQKT | not soluble |
| GMYANKVKKIAAVHDLSGMGRVSLTVVIPILSSMGFQVCPLPTAVLSNHTQYPGFSFLDLTDEMPKIIAEWKKLEVQFDAIYTGYLGSPRQIQIVSDFIKDFRQPDSLIVADPVLGDNGRLYTNFDMEMVKEMRHLITKADVITPNLTELFYLLDEPYKADSTDEELKEYLRLLSDKGPQVVIITSVPVHDEPHKTSVYAYNRQGNRYWKVTCPYLPAHYPGTGDTFTSVITGSLMQGDSLPMALDRATQFILQGIRATFGYEYDNREGILLEKVLHNLDMPIQMASYELI | soluble |
| MSLKTSHLKEVPETLAMRESLRDRCAQVAAKLDRSHPMTKDEMEQISRRMLEEADLPESYLGWVMVMISSEFWADALASVPPERRLFLLPHCLKHAEGCPAEYDQFGMNCKECGACSIADFRSIAEDMGYRVLVAEGSPVVMKIIVGGYVDAVVGVACLNVLEKAIDKVLLAGIPCMAVPLLSSDCRNTKVDEPWVEQMIRTPYKPAAAKTKSYVHLMRAAGLLFEDTLFERLAEGHHHHHH | not soluble |
| ATALQCFCHLCTKDNFTCVTDGLCFVSVTETTDKVIHNSMCIAEIDLIPRDRPFVCAPSSKTGSVTTTYCCNQDHCNKIELPTTV | soluble |
| GMPHVHVSTDNSLLDIGLIHRTLSQDTDWAKDIPLALVQRAIDHSLCFGGFVDGRQVAFARVISDYATFAYLGDVFVLPEHRGRGYSKALMDAVMAHPDLQGLRRFSLATSDAHGLYARYGFTPPLFPQSLMERYVPGLYST | soluble |
